The Kd is the equilibrium constant for the complex coming apart. A high value points to weaker binding.

For this test, the target named is T1, rhVEGFR1-Fc (R&D Systems, Minneapolis, Minn.) (human, UniProt P17948-2 27-687, limits assumed).
T1 construct: It was captured on plates by an anti-Fc antibody; also called Flt-1; not shown: Fc part of the bought fusion
Put plainly: cell-free plate assay: rhVEGFR1-Fc captured by anti-Fc, VEGF165 titrated, Kd from the double reciprocal plot; heparin level not given. Here is the method:
Plates were washed five times with wash buffer (0.05% Tween-20 in PBS, pH 7.2-7.4) the next morning and blocked with blocking buffer (2% bovine serum albumin and 0.05% Tween-20 in PBS) for 1 hour at 37° C. […] Substrate reaction was stopped with 2N sulfuric acid and the signal was visualized with a FLUOstar Omega microplate reader (BMG Labtech, Cary, N.C.) at 450 nm.
All other outcomes were analyzed with analysis of variance.

T1 sequence (P17948 other isoform, or with tags, fused parts or gaps limits assumed): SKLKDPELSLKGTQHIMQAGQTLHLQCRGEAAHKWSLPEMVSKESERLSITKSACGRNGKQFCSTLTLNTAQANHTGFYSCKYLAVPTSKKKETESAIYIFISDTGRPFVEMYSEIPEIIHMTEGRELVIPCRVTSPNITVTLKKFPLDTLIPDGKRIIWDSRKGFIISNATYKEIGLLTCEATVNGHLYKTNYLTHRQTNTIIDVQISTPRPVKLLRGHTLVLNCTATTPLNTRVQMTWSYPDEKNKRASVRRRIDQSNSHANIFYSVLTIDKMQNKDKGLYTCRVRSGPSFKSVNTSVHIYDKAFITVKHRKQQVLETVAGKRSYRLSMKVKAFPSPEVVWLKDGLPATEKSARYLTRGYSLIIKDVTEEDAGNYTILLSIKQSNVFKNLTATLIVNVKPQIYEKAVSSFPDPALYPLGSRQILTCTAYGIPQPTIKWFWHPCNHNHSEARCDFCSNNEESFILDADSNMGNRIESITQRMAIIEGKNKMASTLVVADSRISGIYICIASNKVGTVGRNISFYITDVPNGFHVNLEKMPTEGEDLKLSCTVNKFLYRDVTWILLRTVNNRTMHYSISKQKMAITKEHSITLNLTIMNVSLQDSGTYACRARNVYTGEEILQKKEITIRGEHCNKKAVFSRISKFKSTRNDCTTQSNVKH

B1: rhVEGF-165 (Shire, Lexington, Mass.) (ligand)
chain: APMAEGGGQNHHEVVKFMDVYQRSYCHPIETLVDIFQEYPDEIEYIFKPSCVPLMRCGGCCNDEGLECVPTEESNITMQIMRIKPHQGQHIGEMSFLQHNKCECRPKKDRARQENPCGPCSERRKHLFVQDPQTCKCSCKNTDSRCKARQLELNERTCRCDKPRR
As for B1, binding was characterised by a dissociation constant (Kd) of 8.14 ng/mL.

Source of the values: patent publication US20200155648A1 (CHILDREN S MEDICAL CENTER, published 2020).
